Biological target: Recombinant Fc-tagged hDLL4 (human, UniProt Q9NR61 27-529)
Test: SPR

Sequence of Recombinant Fc-tagged hDLL4 (Q9NR61 27-529): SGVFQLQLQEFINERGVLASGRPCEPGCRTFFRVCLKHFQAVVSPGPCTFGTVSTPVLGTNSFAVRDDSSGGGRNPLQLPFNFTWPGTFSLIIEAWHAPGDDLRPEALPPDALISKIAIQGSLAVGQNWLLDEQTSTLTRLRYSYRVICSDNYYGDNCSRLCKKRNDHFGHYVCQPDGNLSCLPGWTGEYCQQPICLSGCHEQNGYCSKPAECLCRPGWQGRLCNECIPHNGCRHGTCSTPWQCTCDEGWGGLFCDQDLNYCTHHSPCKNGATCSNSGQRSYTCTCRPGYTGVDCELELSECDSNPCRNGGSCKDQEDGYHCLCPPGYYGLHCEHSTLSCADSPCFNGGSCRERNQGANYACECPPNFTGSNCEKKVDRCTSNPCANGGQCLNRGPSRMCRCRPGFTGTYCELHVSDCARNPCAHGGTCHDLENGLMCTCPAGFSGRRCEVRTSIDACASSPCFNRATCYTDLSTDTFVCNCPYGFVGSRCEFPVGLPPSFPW

B1: N4_(10-14)Fc, Notch4 EGF-like repeats 10–14 fused to human IgG Fc (Fc fusion)
chain: RGLLCGSFPEPCANGGTCLSLSLGQGTCQCAPGFLGETCQFPDPCQNAQLCQNGGSCQALLPAPLGLPSSPSPLTPSFLCTCLPGFTGERCQAKLEDPCPPSFCSKRGRCHIQASGRPQCSCMPGWTGEQCQLRDFCSANPCVNGGVCLATYPQIQCHCPPGFEGHACERDVNECFQDPGPCPKGTSCHNTLGSFQCLCPVGQEGPRCELRAGPCPPRGCSNGGTCQLMPEKDSTFHLCLCPPGFIGPDCEVNPDNCVSHQCQNGGTCQDGLDTYTCLCPETWTGWDCSEDVDECETQGPPHCRNGGTCQNSAGSFHCVCVSGWGGTSCEENLDDCIAATCAPGSTCIDRVGSFSCLCPPGRTGLLCHLEDMCLSQPCHGDAQCSTNPLTGSTLCLCQPGYSGPTCHQDLDECLMAQQGPSPCEHGGSCLNTPGSFNCLCPPGYTGSRCEADHNECLSQPCHPGSTCLDLLATFHCLCPPGLEGQLCEVETNECASAPCLNHADCHDLLNGFQCICLPGFSGTRCEEDIDECRSSPCANGGQCQDQPGAFHCKCLPGFEGPRCQTEVDECLSDPCPVGASCLDLPGAFFCLCPSGFTGQLCEVPLCAPNLCQPKQICKDQKDKANCLCPDGSPGCAPPEDNCTCHHGHCQRSSCVCDVGWTGPECEAELGGCISAPCAHGGTCYPQPSGYNCTCPTGYTGPTCSEEMTACHSGPCLNGGSCNPSPGGYYCTCPPSHTGPQCQTSTDYCVSAPCFNGGTCVNRPGTFSCLCAMGFQGPRCEGKLRPSCADSPCRNRATCQDSPQGPRCLCPTGYTGGSCQTLMDLCAQKPCPRNSHCLQTGPSFHCLCLQGWTGPLCNLPLSSCQKAALSQGIDVSSLCHNGGLCVDSGPSYFCHCPPGFQGSLCQDHVNPCESRPCQNGATCMAQPSGYLCQCAPGYDGQNCSKELDACQSQPCHNHGTCTPKPGGFHCACPPGFVGLRCEGDVDECLDQPCHPTGTAACHSLANAFYCQCLPGHTGQWCEVEIDPCHSQPCFHGGTCEATAGSPLGFICHCPKGFEGPTCSHRAPSCGFHHCHHGGLCLPSPKPGFPPRCACLSGYGGPDCLTPPAPKGCGPPSPCLYNGSCSETTGLGGPGFRCSCPHSSPGPRCQKPGAKGCEGRSGDGACDAGCSGPGGNWDGGDCSLGVPDPWKGCPSHSRCWLLFRDGQCHPQCDSEECLFDGYDCETPPACTPAYDQYCHDHFHNGHCEKGCNTAECGWDGGDCRPEDGDPEWGPSLALLVVLSPPALDQQLFALARVLSLTLRVGLWVRKDRDGRDMVYPYPGARAEEKLGGTRDPTYQERAAPQTQPLGKETDSLSAGFVVVMGVDLSRCGPDHPASRCPWDPGLLLRFLAAMAAVGALEPLLPGPLLAVHPHAGTAPPANQLPWPVLCSPVAGVILLALGALLVLQLIRRRRREHGALWLPPGFTRRPRTQSAPHRRRPPLGEDSIGLKALKPKAEVDEDGVVMCSGPEEGEEVGQAEETGPPSTCQLWSLSGGCGALPQAAMLTPPQESEMEAPDLDTRGPDGVTPLMSAVCCGEVQSGTFQGAWLGCPEPWEPLLDGGACPQAHTVGTGETPLHLAARFSRPTAARRLLEAGANPNQPDRAGRTPLHAAVAADAREVCQLLLRSRQTAVDARTEDGTTPLMLAARLAVEDLVEELIAAQADVGARDKWGKTALHWAAAVNNARAARSLLQAGADKDAQDNREQTPLFLAAREGAVEVAQLLLGLGAARELRDQAGLAPADVAHQRNHWDLLTLLEGAGPPEARHKATPGREAGPFPRARTVSVSVPPHGGGALPRCRTLSAGAGPRGGGACLQARTWSVDLAARGGGAYSHCRSLSGVGAGGGPTPRGRRFSAGMRGPRPNPAIMRGRYGVAAGRGGRVSTDDWPCDWVALGACGSASNIPIPPPCLTPSPERGSPQLDCGPPALQEMPINQGGEGKK
**Q.** B1 was tested. Which koff did it give?
**A.** 0.0099 s⁻¹

— PMC10119233 (2022)
